Results taken from US20210355194A1.

How the values were obtained:
[1] = molecular target: SARS-CoV-2 antigen of the epitope binning (SARS-CoV-2) (UniProt P0DTC2); test: epitope binning; competitor CR3022
[2] = molecular target: SARS-CoV-2 antigen of the epitope binning (SARS-CoV-2) (UniProt P0DTC2); test: epitope binning; competitor Acro mAb
[3] = molecular target: SARS-CoV-2 antigen of the epitope binning (SARS-CoV-2) (UniProt P0DTC2); test: epitope binning; competitor 1-16
[4] = molecular target: SARS-CoV-2 antigen of the epitope binning (SARS-CoV-2) (UniProt P0DTC2); test: epitope binning; competitor 2-2
[5] = molecular target: SARS-CoV-2 antigen of the epitope binning (SARS-CoV-2) (UniProt P0DTC2); test: epitope binning; competitor 2-11
[6] = molecular target: SARS-CoV-2 antigen of the epitope binning (SARS-CoV-2) (UniProt P0DTC2); test: epitope binning; competitor 2-6
[7] = molecular target: SARS-CoV-2 antigen of the epitope binning (SARS-CoV-2) (UniProt P0DTC2); test: epitope binning; competitor 1-35
[8] = molecular target: SARS-CoV-2 antigen of the epitope binning (SARS-CoV-2) (UniProt P0DTC2); test: epitope binning; competitor 1-32
[9] = molecular target: SARS-CoV-2 antigen of the epitope binning (SARS-CoV-2) (UniProt P0DTC2); test: epitope binning; competitor 2-8
[10] = molecular target: SARS-CoV-2 antigen of the epitope binning (SARS-CoV-2) (UniProt P0DTC2); test: epitope binning; competitor 2-5
[11] = molecular target: ACE2 on VERO E6 cells (African green monkey); test: flow cytometry, VERO E6 cells, positive control

Substance | epitope binning score [1] | epitope binning score [2] | epitope binning score [3] | epitope binning score [4] | epitope binning score [5] | epitope binning score [6] | epitope binning score [7] | epitope binning score [8] | epitope binning score [9] | epitope binning score [10] | MFI [11] | MFI/Baseline [11]
CR3022 (antibody) | 0 | 2 | 2 | 0 | 1 | 2 | 2 | 1 | 0 | 0 | – | –
S1 RBD Fc fusion (from UniProt P0DTC2 319-541) | – | – | – | – | – | – | – | – | – | – | 26100 | 75.9
